Here are results for 1 molecule from paper PMC2956685, “The 14-3-3ζ Protein Binds to the Cell Adhesion Molecule L1, Promotes L1 Phosphorylation by CKII and Influences L1-Dependent Neurite Outgrowth” (PLoS ONE, 2010).

This experiment deals with His-L1ICD, non-phosphorylated (intracellular domain of L1) (mouse, UniProt P11627 1144-1260). As to the kind of experiment: cell-based or functional assay.
Chain of His-L1ICD, non-phosphorylated (intracellular domain of L1) (P11627 1144-1260): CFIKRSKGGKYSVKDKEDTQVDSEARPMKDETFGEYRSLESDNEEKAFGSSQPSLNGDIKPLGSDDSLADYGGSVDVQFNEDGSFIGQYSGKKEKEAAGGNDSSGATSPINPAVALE

B1: GST-14-3-3ζ (natural protein, UniProt P63104 1-245, looked up)
chain: MDKNELVQKAKLAEQAERYDDMAACMKSVTEQGAELSNEERNLLSVAYKNVVGARRSSWRVVSSIEQKTEGAEKKQQMAREYREKIETELRDICNDVLSLLEKFLIPNASQAESKVFYLKMKGDYYRYLAEVAAGDDKKGIVDQSQQAYQEAFEISKKEMQPTHPIRLGLALNFSVFYYEILNSPEKACSLAKTAFDEAIAELDTLSEESYKDSTLIMQLLRDNLTLWTSDTQGDEAEAGEGGEN
Take B1: the “phosphorylation of L1ICD by CKII in vitro (densitometry of the phospho-L1ICD band, 0 to 180 min) after preincubation with GST-14-3-3ζ against GST alone” value is ~3 fold.
